The target of assay [1] is T1, rat calcitonin receptor (rat, UniProt P32214 25-516).
T1 construct: whole, on cells; Used as membranes prepared from BHK tk'ts 13 cells transiently transfected with the rat calcitonin receptor (Assay VIII); also called rCTR; rat calcitonin (a) receptor
T1 sequence (looked up): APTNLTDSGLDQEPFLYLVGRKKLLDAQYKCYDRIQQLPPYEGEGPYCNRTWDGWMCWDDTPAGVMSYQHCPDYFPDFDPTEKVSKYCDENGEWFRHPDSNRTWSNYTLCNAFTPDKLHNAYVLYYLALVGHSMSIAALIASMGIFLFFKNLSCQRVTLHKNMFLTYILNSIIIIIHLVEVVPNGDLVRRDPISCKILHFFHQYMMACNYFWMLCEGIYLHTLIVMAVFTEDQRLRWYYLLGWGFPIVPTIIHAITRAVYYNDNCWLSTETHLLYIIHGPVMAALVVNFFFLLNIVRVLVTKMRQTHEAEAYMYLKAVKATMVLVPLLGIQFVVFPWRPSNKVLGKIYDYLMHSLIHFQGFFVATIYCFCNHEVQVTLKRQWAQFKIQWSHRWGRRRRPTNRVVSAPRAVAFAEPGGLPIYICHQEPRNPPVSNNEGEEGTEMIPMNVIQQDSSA
The experiment in a line: SPA competition with 125I-calcitonin, membranes of BHK cells with rat CTR (Assay VIII).

The target in assay [2] is T1, rat calcitonin receptor. Put plainly: IC50 on rat CTR divided by IC50 on rat amylin receptor (Assays VIII/VI).
The target of assay [3] is T2, rat amylin receptor (rat calcitonin receptor + rat RAMP 3) (rat, UniProt P32214 25-516; Q9JJ73 23-147).
T2 construct: whole, on cells; Used as membranes prepared from BHK tk'ts 13 cells transiently transfected with rat calcitonin receptor and rat RAMP 3 (Assay VI); also called rAmylin-R; rat amylin 3(a) receptor
T2 sequence (looked up) 1: T1 sequence (looked up)
T2 sequence (looked up) 2: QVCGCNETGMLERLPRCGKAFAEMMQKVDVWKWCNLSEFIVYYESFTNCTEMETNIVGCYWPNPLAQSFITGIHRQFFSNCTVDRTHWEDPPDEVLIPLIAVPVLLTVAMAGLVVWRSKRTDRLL
The experiment in a line: SPA competition with 125I-rat amylin, membranes of BHK cells with rat CTR + rat RAMP3 (Assay VI). As to the method:
The binding assay was performed using scintillation proximity assay (SPA) beads (RPNQ0001) from PerkinElmer and cell membranes from the Amylin 3(a)/CRE-luc cells (as described in Assay (II)) were used. Membranes were prepared in the following way; the cells were rinsed with PBS and incubated with Versene for approximately 5 min before harvesting. The cells were flushed with PBS and the cell-suspension was centrifuged for 5 min at 1000 rpm. Cells were homogenized (ultrathurrax) in a buffer containing 20 mM Na-HEPES and 10 mM EDTA (pH 7.4) and centrifuged at 20.000 rpm for 15 min. The resulting pellet was resuspended, homogenized and centrifuged (20.000 rpm, 15 min) in a buffer containing 20 mM Na-HEPES and 0.1 mM EDTA (pH 7.4, buffer 2). The resulting pellet was resuspended in buffer 2 and protein concentration was measured (BCA protein Assay, Pierce). The homogenate was kept cold during the whole procedure. The membranes were kept at −80° C. until use. The assay was performed in a 384 well Optiplate (PerkinElmer) in a total volume of 40 ul. Membranes were mixed with SPA beads. Final concentration of membranes 35 ng/μL final and SPA beads was 0.05 mg/well. Test-compounds were dissolved in DMSO and further diluted in assay buffer (50 mM Hepes, pH 7.4, 1 mM CaCl2, 5 mM MgCl₂, 0.1% OA and 0.02% Tween20). […] The final mixture was incubated with shaking at 400 rpm for 120 min at 25° C. prior to centrifugation (1500 rpm, 10 min). Samples were analyzed on TopCounter™ (Packard). The IC₅₀ was calculated using (one site binding competition analysis) GraphPad Prism5 as a measure of receptor affinity.
Cells were grown in DMEM with 10% FBS and 1% Pen/Strep. Approximately 48 hours after transfection, the cells were harvested and membranes were prepared.

In assay [4] the target is T3, human calcitonin receptor (human, UniProt P30988 25-474).
T3 construct: whole, on cells; Used as membranes prepared from a BHK tk'ts 13 cell line stably transfected with the human calcitonin receptor (Assay VII); also called hCTR; hCT
T3 sequence (looked up): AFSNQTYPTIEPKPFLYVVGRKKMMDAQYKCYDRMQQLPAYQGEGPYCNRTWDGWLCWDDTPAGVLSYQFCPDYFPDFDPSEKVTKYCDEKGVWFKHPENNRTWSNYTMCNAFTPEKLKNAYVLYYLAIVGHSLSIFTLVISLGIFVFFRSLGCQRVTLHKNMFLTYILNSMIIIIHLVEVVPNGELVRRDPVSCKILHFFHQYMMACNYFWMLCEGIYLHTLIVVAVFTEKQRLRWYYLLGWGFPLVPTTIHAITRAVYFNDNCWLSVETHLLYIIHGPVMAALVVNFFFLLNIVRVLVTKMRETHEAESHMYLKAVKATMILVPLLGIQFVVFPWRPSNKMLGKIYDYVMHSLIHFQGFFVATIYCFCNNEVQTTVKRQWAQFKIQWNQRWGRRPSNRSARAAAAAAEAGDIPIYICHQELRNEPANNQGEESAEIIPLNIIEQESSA
Put plainly: IC50 on human CTR divided by IC50 on human amylin receptor (Assays VII/V). As to the method: The resulting pellet was resuspended, homogenized and centrifuged (20.000 rpm, 15 min) in a buffer containing 20 mM Na-HEPES and 0.1 mM EDTA (pH 7.4, buffer 2). The resulting pellet was resuspended in buffer 2 and protein concentration was measured (BCA protein Assay, Pierce). The homogenate was kept cold during the whole procedure. The membranes were kept at −80° C. until use. The assay was performed in a 384 well Optiplate (PerkinElmer) in a total volume of 40 ul. Membranes were mixed with SPA beads. Final concentration of membranes 35 ng/μL final and SPA beads was 0.05 mg/well. Test-compounds were dissolved in DMSO and further diluted in assay buffer (50 mM Hepes, pH 7.4, 1 mM CaCl2, 5 mM MgCl₂, 0.1% OA and 0.02% Tween20). […] The final mixture was incubated with shaking at 400 rpm for 120 min at 25° C. prior to centrifugation (1500 rpm, 10 min). Samples were analyzed on TopCounter™ (Packard). The IC₅₀ was calculated using (one site binding competition analysis) GraphPad Prism5 as a measure of receptor affinity.
Membranes were prepared in the following way; the cells were rinsed with PBS and incubated with Versene for approximately 5 min before harvesting. The cells were flushed with PBS and the cell-suspension was centrifuged for 5 min at 1000 rpm. Cells were homogenized (Ultrathurrax) in a buffer containing 20 mM Na-HEPES and 10 mM EDTA (pH 7.4) and centrifuged at 20.000 rpm for 15 min. The resulting pellet was resuspended, homogenized and centrifuged (20.000 rpm, 15 min) in a buffer containing 20 mM Na-HEPES and 0.1 mM EDTA (pH 7.4, buffer 2). The resulting pellet was resuspended in buffer 2 and protein concentration was measured (BCA protein Assay, Pierce). The homogenate was kept cold during the whole procedure. The membranes were kept at −80° C. until use. Assay was performed in a 384 well Optiplate (PerkinElmer) in a total volume of 40 ul. Membranes were mixed with SPA beads.

Numbered stars: 1 amine (or outer) side, 2 acyl side, 3 side chain; on linkers, the order of the positions; unused ones are H or OH. Bridge positions count the residues as written; N and C are the ends. Side chains are listed from the residue outwards. Ends that are not written are not given here. * marks the point of attachment. C20 diacid = O=C(O)CCCCCCCCCCCCCCCCCCC(=O)*; γGlu = O=C(O)[C@H](CCC(=O)[*:2])N[*:1]; AEEA = NCCOCCOCC(=O)O

The values that follow come from US20140087995A1 (published 2014).

As a reminder, the IC50 is the concentration needed to halve the response being measured.

B1: N^ε1-[2-[2-[2-[[(4S)-4-carboxy-4-(19-carboxynonadecanoylamino)butanoyl]amino]ethoxy]ethoxy]acetyl]-[Arg14,Arg17,Pro21,Pro27,Pro31]-h-amylin (peptide)
peptide: K([AEEA-γGlu-C20 diacid])CNTATCATQRLARFLRHSSPNFGAIPSSTPVGSNTY-NH2
modifications: disulfide 2-7; N-terminus assumed
SMILES: CC[C@H](C)[C@H](NC(=O)[C@H](C)NC(=O)CNC(=O)[C@H](Cc1ccccc1)NC(=O)[C@H](CC(N)=O)NC(=O)[C@@H]1CCCN1C(=O)[C@H](CO)NC(=O)[C@H](CO)NC(=O)[C@H](Cc1c[nH]cn1)NC(=O)[C@H](CCCNC(=N)N)NC(=O)[C@H](CC(C)C)NC(=O)[C@H](Cc1ccccc1)NC(=O)[C@H](CCCNC(=N)N)NC(=O)[C@H](C)NC(=O)[C@H](CC(C)C)NC(=O)[C@H](CCCNC(=N)N)NC(=O)[C@H](CCC(N)=O)NC(=O)[C@@H](NC(=O)[C@H](C)NC(=O)[C@@H]1CSSC[C@H](NC(=O)[C@@H](N)CCCCNC(=O)COCCOCCNC(=O)CC[C@H](NC(=O)CCCCCCCCCCCCCCCCCCC(=O)O)C(=O)O)C(=O)N[C@@H](CC(N)=O)C(=O)N[C@@H]([C@@H](C)O)C(=O)N[C@@H](C)C(=O)N[C@@H]([C@@H](C)O)C(=O)N1)[C@@H](C)O)C(=O)N1CCC[C@H]1C(=O)N[C@@H](CO)C(=O)N[C@@H](CO)C(=O)N[C@H](C(=O)N1CCC[C@H]1C(=O)N[C@H](C(=O)NCC(=O)N[C@@H](CO)C(=O)N[C@@H](CC(N)=O)C(=O)N[C@H](C(=O)N[C@@H](Cc1ccc(O)cc1)C(N)=O)[C@@H](C)O)C(C)C)[C@@H](C)O
notes: Analogue of human amylin; also called compound 64
B1: the IC50 in assay [1] came out at 128 nM; in assay [3] it was 1.97 nM. Also, in assay [2], the “Ratio rCT/rAmylin binding” value is 64.7. In assay [4], the “Ratio hCT/hAmylin binding” value is 126.

B2: N^ε1-[2-[2-[2-[[(4S)-4-carboxy-4-(19-carboxynonadecanoylamino)butanoyl]amino]ethoxy]ethoxy]acetyl]-[Arg14,Arg17,Pro21,Pro27]-h-amylin (peptide)
peptide: K([AEEA-γGlu-C20 diacid])CNTATCATQRLARFLRHSSPNFGAIPSSTNVGSNTY-NH2
modifications: disulfide 2-7; N-terminus assumed
SMILES: CC[C@H](C)[C@H](NC(=O)[C@H](C)NC(=O)CNC(=O)[C@H](Cc1ccccc1)NC(=O)[C@H](CC(N)=O)NC(=O)[C@@H]1CCCN1C(=O)[C@H](CO)NC(=O)[C@H](CO)NC(=O)[C@H](Cc1c[nH]cn1)NC(=O)[C@H](CCCNC(=N)N)NC(=O)[C@H](CC(C)C)NC(=O)[C@H](Cc1ccccc1)NC(=O)[C@H](CCCNC(=N)N)NC(=O)[C@H](C)NC(=O)[C@H](CC(C)C)NC(=O)[C@H](CCCNC(=N)N)NC(=O)[C@H](CCC(N)=O)NC(=O)[C@@H](NC(=O)[C@H](C)NC(=O)[C@@H]1CSSC[C@H](NC(=O)[C@@H](N)CCCCNC(=O)COCCOCCNC(=O)CC[C@H](NC(=O)CCCCCCCCCCCCCCCCCCC(=O)O)C(=O)O)C(=O)N[C@@H](CC(N)=O)C(=O)N[C@@H]([C@@H](C)O)C(=O)N[C@@H](C)C(=O)N[C@@H]([C@@H](C)O)C(=O)N1)[C@@H](C)O)C(=O)N1CCC[C@H]1C(=O)N[C@@H](CO)C(=O)N[C@@H](CO)C(=O)N[C@H](C(=O)N[C@@H](CC(N)=O)C(=O)N[C@H](C(=O)NCC(=O)N[C@@H](CO)C(=O)N[C@@H](CC(N)=O)C(=O)N[C@H](C(=O)N[C@@H](Cc1ccc(O)cc1)C(N)=O)[C@@H](C)O)C(C)C)[C@@H](C)O
notes: Analogue of human amylin; also called compound 82
As for B2, the IC50 in assay [1] was found to be 143 nM; in assay [3], 1.64 nM. For the same molecule, the “Ratio rCT/rAmylin binding” value in assay [2] came to 87. Moreover, the “Ratio hCT/hAmylin binding” value in assay [4] was found to be 140.

B3: N^ε1-[2-[2-[2-[[(4S)-4-carboxy-4-(19-carboxynonadecanoylamino)butanoyl]amino]ethoxy]ethoxy]acetyl]-[Arg17,Pro21,Pro27,Arg34]-h-amylin (peptide)
peptide: K([AEEA-γGlu-C20 diacid])CNTATCATQRLANFLRHSSPNFGAIPSSTNVGRNTY-NH2
modifications: disulfide 2-7; N-terminus assumed
SMILES: CC[C@H](C)[C@H](NC(=O)[C@H](C)NC(=O)CNC(=O)[C@H](Cc1ccccc1)NC(=O)[C@H](CC(N)=O)NC(=O)[C@@H]1CCCN1C(=O)[C@H](CO)NC(=O)[C@H](CO)NC(=O)[C@H](Cc1c[nH]cn1)NC(=O)[C@H](CCCNC(=N)N)NC(=O)[C@H](CC(C)C)NC(=O)[C@H](Cc1ccccc1)NC(=O)[C@H](CC(N)=O)NC(=O)[C@H](C)NC(=O)[C@H](CC(C)C)NC(=O)[C@H](CCCNC(=N)N)NC(=O)[C@H](CCC(N)=O)NC(=O)[C@@H](NC(=O)[C@H](C)NC(=O)[C@@H]1CSSC[C@H](NC(=O)[C@@H](N)CCCCNC(=O)COCCOCCNC(=O)CC[C@H](NC(=O)CCCCCCCCCCCCCCCCCCC(=O)O)C(=O)O)C(=O)N[C@@H](CC(N)=O)C(=O)N[C@@H]([C@@H](C)O)C(=O)N[C@@H](C)C(=O)N[C@@H]([C@@H](C)O)C(=O)N1)[C@@H](C)O)C(=O)N1CCC[C@H]1C(=O)N[C@@H](CO)C(=O)N[C@@H](CO)C(=O)N[C@H](C(=O)N[C@@H](CC(N)=O)C(=O)N[C@H](C(=O)NCC(=O)N[C@@H](CCCNC(=N)N)C(=O)N[C@@H](CC(N)=O)C(=O)N[C@H](C(=O)N[C@@H](Cc1ccc(O)cc1)C(N)=O)[C@@H](C)O)C(C)C)[C@@H](C)O
notes: Analogue of human amylin; also called compound 78
For the molecule B3, the IC50 is 90.6 nM in assay [1] and 1.3 nM in assay [3]. The “Ratio rCT/rAmylin binding” value in assay [2] was 69.9. Also, the “Ratio hCT/hAmylin binding” value in assay [4] is 60.7.
